From patent US20110311550A1 (Scripps Research, published 2011)

Legend:
Assay in all cases: ELISA, lectin-captured E1E2 lysate, Ab 1 ug/ml
[1] = biological target: E1E2 complex (H77) with E2 mutation Y624A (HCV genotype 1a, isolate H77, UniProt P27958 192-383; P27958 384-746)
[2] = biological target: E1E2 complex (H77) with E1 mutation P295A (HCV genotype 1a, isolate H77, UniProt P27958 192-383; P27958 384-746)
[3] = biological target: E1E2 complex (H77) with E1 mutation N325A (HCV genotype 1a, isolate H77, UniProt P27958 192-383; P27958 384-746)
[4] = biological target: E1E2 complex (H77) with E1 mutation W239A (HCV genotype 1a, isolate H77, UniProt P27958 192-383; P27958 384-746)
[5] = biological target: E1E2 complex (H77) with E1 mutation N305A/N209A (HCV genotype 1a, isolate H77, UniProt P27958 192-383; P27958 384-746)
[6] = biological target: E1E2 complex (H77) with E1 mutation Y309A (HCV genotype 1a, isolate H77, UniProt P27958 192-383; P27958 384-746)
[7] = biological target: E1E2 complex (H77) with E1 mutation R317A (HCV genotype 1a, isolate H77, UniProt P27958 192-383; P27958 384-746)
[8] = biological target: E1E2 complex (H77) with E1 mutation N196A/N209A (HCV genotype 1a, isolate H77, UniProt P27958 192-383; P27958 384-746)
[9] = biological target: E1E2 complex (H77) with E1 mutation S211A (HCV genotype 1a, isolate H77, UniProt P27958 192-383; P27958 384-746)
[10] = biological target: E1E2 complex (H77) with E1 mutation F291A (HCV genotype 1a, isolate H77, UniProt P27958 192-383; P27958 384-746)
[11] = biological target: E1E2 complex (H77) with E1 mutation D279A (HCV genotype 1a, isolate H77, UniProt P27958 192-383; P27958 384-746)
[12] = biological target: E1E2 complex (H77) with E1 mutation G278A (HCV genotype 1a, isolate H77, UniProt P27958 192-383; P27958 384-746)
[13] = biological target: E1E2 complex (H77) with E1 mutation A269G (HCV genotype 1a, isolate H77, UniProt P27958 192-383; P27958 384-746)
[14] = biological target: E1E2 complex (H77) with E1 mutation M324A (HCV genotype 1a, isolate H77, UniProt P27958 192-383; P27958 384-746)
[15] = biological target: E1E2 complex (H77) with E1 mutation V194A (HCV genotype 1a, isolate H77, UniProt P27958 192-383; P27958 384-746)
[16] = biological target: E1E2 complex (H77) with E1 mutation Q193A (HCV genotype 1a, isolate H77, UniProt P27958 192-383; P27958 384-746)
[17] = biological target: E1E2 complex (H77) with E1 mutation D263A (HCV genotype 1a, isolate H77, UniProt P27958 192-383; P27958 384-746)
[18] = biological target: E1E2 complex (H77) with E1 mutation H261A (HCV genotype 1a, isolate H77, UniProt P27958 192-383; P27958 384-746)
[19] = biological target: E1E2 complex (H77) with E1 mutation M318A (HCV genotype 1a, isolate H77, UniProt P27958 192-383; P27958 384-746)
[20] = biological target: E1E2 complex (H77) with E1 mutation V246A (HCV genotype 1a, isolate H77, UniProt P27958 192-383; P27958 384-746)
[21] = biological target: E1E2 complex (H77) with E1 mutation T329A (HCV genotype 1a, isolate H77, UniProt P27958 192-383; P27958 384-746)
[22] = biological target: E1E2 complex (H77) with E1 mutation P244A (HCV genotype 1a, isolate H77, UniProt P27958 192-383; P27958 384-746)

B1: N4 IgG (antibody, V domains shown)
VH: VQLLEQSGPEVKKPGDSLRISCKMSGDSLVTTWIGWVRQKPGQGLEWMGIINPGDSSTNIYPGDSATRYGPSFQGQVTISIDKSTSTAYLQWNNVKASDTGIYYCARHVPVPISGTFLWREREMHDFGYFDDWGQGTLVIVSS
VL: ELTLTQSPGTLSLSPGERATLSCRASQSVSNNYLAWYQQKPGQAPRLLIYGASSRATGIPDRFSGSGSGTGFTLIISRLEPEDFAVYYCQQYGSSSITFGQGTRLEIKR
notes: also called IgG N4
Binding relative to wt (%) [1]: 59%
Binding relative to wt (%) [2]: 82%
Binding relative to wt (%) [3]: 150%
Binding relative to wt (%) [4]: 67%
Binding relative to wt (%) [5]: 17%
Binding relative to wt (%) [6]: 32%
Binding relative to wt (%) [7]: 98%
Binding relative to wt (%) [8]: 21%
Binding relative to wt (%) [9]: 93%
Binding relative to wt (%) [10]: 131%
Binding relative to wt (%) [11]: 31%
Binding relative to wt (%) [12]: 68%
Binding relative to wt (%) [13]: 55%
Binding relative to wt (%) [14]: 89%
Binding relative to wt (%) [15]: 109%
Binding relative to wt (%) [16]: 117%
Binding relative to wt (%) [17]: 85%
Binding relative to wt (%) [18]: 106%
Binding relative to wt (%) [19]: 92%
Binding relative to wt (%) [20]: 97%
Binding relative to wt (%) [21]: 114%
Binding relative to wt (%) [22]: 95%
